According to patent publication US20240058465A1 (SUTRO BIOPHARMA, published 2024):
Where a chain is given by its changes, count along the chain named. One block for each binder: values may come before it.

Legend:
human ROR1 (hROR1) = target: T1, human ROR1 (hROR1) (human, UniProt Q01973 30-937); experiment: flow cytometry, HCT116-hROR1 cells
T1 construct: On HCT116-hROR1 transfectants, Mino cells or Ntera-2 cells, as the assay of each row says; also called receptor tyrosine kinase like orphan receptor 1
Protocol: A mix of ROR1 positive and negative cells was prepared as follows. Ror1 negative cells were washed 2× in PBS then incubated in PBS containing 1 nM CellTrace™ Oregon Green488® (Life Technologies) at 37° C. for 30 minutes. Cells were then washed 2× with RPMI w/10% fetal calf serum (or FCS), washed 2× with FACS buffer (PBS+0.5% BSA), suspended thoroughly in ice-cold FACS buffer at a final concentration of 4×10^6 cells/ml and kept on ice. ROR1 positive cells were washed 2× in PBS and suspended with ice-cold FACS buffer at 4×10^6 cells/ml. ROR1 positive and negative cells were then mixed to obtain a 1-1 cell suspension and seeded at 50 μl per well on 96 well polypropylene plates. 50 μl of 6-12 point dilutions of anti-ROR1 variants starting from concentrations of ˜100-200 nM antibody was dispensed using BioMekFX (Beckman Coulter) into each well. Cells were then incubated on ice for 1 hr, washed with FACS buffer and incubated for 1 hr on ice with 50 μl FACS buffer containing 2.5 μg/ml Alexa647-conjugated Goat Anti-Human IgG dispensed using BioMekFX (Beckman Coulter). Cells were then washed 2× with FACS buffer and fixed for 10 minutes in 200 μl PBS with 2% PFA prior to fluorescence detection. Samples were acquired using a Beckton Dickinson LSRII FACS. Mean Fluorescence Intensity of ROR1 antibody binding was analyzed using FlowJo® software (Tree Star, Inc.).

[1] = target: T2, human ROR1 Frizzled domain (hROR1-Fz) (human, UniProt Q01973 165-305); experiment: SPR Biacore, IgG on anti-Fc, ROR1-Fz analyte
T2 construct: Acro Biosystems, made in HEK293
Protocol: Anti-Fc polyclonal antibodies were immobilized onto a CMS chip (GE Life Sciences) using amine coupling chemistry (from Amine Coupling Kit, GE Life Sciences). The immobilization steps were carried out at a flow rate of 25 μL/min in 1×HBS-EP+buffer (GE Life Sciences; 10× Stock diluted before use). The sensor surfaces were activated for 7 min with a mixture of NHS (0.05 M) and EDC (0.2 M). The Anti-Fc antibodies were injected over all 4 flow cells at a concentration of 25 ug/ml in 10 mM sodium acetate, pH 4.5, for 7 min. Ethanolamine (1 M, pH 8.5) was injected for 7 min to block any remaining activated groups.
Off-rate and kinetic binding experiments were performed at 25° C. using 1×HBS-EP+buffer. Test and control antibodies were injected over the anti-Fc surface at concentrations of 5-10 μg/mL for 12 seconds at a flow rate of 10 μL/min on flow cells 2, 3 and 4, followed by a buffer wash for 30 seconds at the same flow rate. […] After capturing ligand (antibody) on the anti-Fc surface, the analyte (hROR1, Fz or Kr domains, Acro Biosystems, Delaware) was bound for 180 seconds, followed by a 600 second dissociation phase at a flow rate of 50 μL/min. Between each ligand capture and analyte binding cycle, regeneration was carried out using 2 injections of 10 mM Glycine pH 2.0 for 30 seconds at 30 μL/min, followed by a 30 second buffer wash step.

Bmax (MFI) (human ROR1 (hROR1)): 15600 MFI
Kd (human ROR1 (hROR1)): 0.28 nM
Kd [1]: 2.35 nM
koff [1]: 0.000511 s⁻¹
kon [1]: 218000 M⁻¹ s⁻¹
B1: SRP2193-B02 (antibody, IgG1, V domains shown)
VH: EVQLVESGGGLVQPGGSLRLSCAASGFNIKNSYIHWVRQAPGKGLEWVGTIDPTRGSTVHADSVKGRFTISADTSKNTAYLQMNSLRAEDTAVYYCARSRWFRVLWSYVFDYWGQGTLVTVSS
VL: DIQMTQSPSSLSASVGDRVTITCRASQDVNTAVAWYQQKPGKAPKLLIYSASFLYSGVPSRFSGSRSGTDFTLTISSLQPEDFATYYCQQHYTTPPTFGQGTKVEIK
notes: His/FLAG-tagged IgG1, cell-free; also called Antibody 77

Bmax (MFI) (human ROR1 (hROR1)): 17000 MFI
Kd (human ROR1 (hROR1)): 0.13 nM
Kd [1]: 1.06 nM
koff [1]: 0.000242 s⁻¹
kon [1]: 228000 M⁻¹ s⁻¹
B2: SRP2193-E01 (antibody, IgG1, V domains shown)
VH: B1 VH with N31G, S32K, T50A, T54K, R55S, V59A, V93A, S107T
VL: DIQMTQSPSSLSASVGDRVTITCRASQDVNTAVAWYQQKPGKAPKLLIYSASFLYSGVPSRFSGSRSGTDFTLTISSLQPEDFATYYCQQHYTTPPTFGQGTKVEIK
notes: His/FLAG-tagged IgG1, cell-free; also called Antibody 120

Bmax (MFI) (human ROR1 (hROR1)): 16400 MFI
Kd (human ROR1 (hROR1)): 8.13 nM
B3: SRP2193-E02 (antibody, IgG1, V domains shown)
VH: B1 VH with N31D, S32Y, T50S, R55S, H60I, F102W
VL: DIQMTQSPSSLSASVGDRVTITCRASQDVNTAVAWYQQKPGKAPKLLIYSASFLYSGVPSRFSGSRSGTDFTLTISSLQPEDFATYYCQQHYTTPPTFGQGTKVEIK
notes: His/FLAG-tagged IgG1, cell-free

Bmax (MFI) (human ROR1 (hROR1)): 14900 MFI
Kd (human ROR1 (hROR1)): 0.18 nM
Kd [1]: 1.19 nM
koff [1]: 0.000207 s⁻¹
kon [1]: 173000 M⁻¹ s⁻¹
B4: SRP2193-C04 (antibody, IgG1, V domains shown)
VH: B1 VH with K30N, N31T, T50A, T54K, R55S, V59N, H60F, T74A, F110L
VL: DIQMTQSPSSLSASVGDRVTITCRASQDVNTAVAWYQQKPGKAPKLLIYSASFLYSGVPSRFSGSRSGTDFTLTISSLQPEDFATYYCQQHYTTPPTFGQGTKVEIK
notes: His/FLAG-tagged IgG1, cell-free; also called Antibody 86

Bmax (MFI) (human ROR1 (hROR1)): 15200 MFI
Kd (human ROR1 (hROR1)): 1.25 nM
B5: SRP2193-D11 (antibody, IgG1, V domains shown)
VH: B1 VH with L11S, K30N, N31A, S32Y, T50A, T54N, R55T, H60D
VL: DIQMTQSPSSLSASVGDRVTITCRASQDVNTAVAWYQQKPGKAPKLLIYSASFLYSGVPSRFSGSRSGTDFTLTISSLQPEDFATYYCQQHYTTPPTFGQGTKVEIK
notes: His/FLAG-tagged IgG1, cell-free; also called Antibody 76

Bmax (MFI) (human ROR1 (hROR1)): 14400 MFI
Kd (human ROR1 (hROR1)): 15.6 nM
B6: SRP2193-E04 (antibody, IgG1, V domains shown)
VH: B1 VH with K30N, N31D, S32R, T50V, T54S, R55L, V59I, H60D, K76R
VL: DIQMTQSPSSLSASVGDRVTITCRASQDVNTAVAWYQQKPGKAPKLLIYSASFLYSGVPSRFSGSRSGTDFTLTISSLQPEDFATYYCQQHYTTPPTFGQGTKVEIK
notes: His/FLAG-tagged IgG1, cell-free; also called Antibody 74

Bmax (MFI) (human ROR1 (hROR1)): 16300 MFI
Kd (human ROR1 (hROR1)): 0.46 nM
B7: SRP2193-E09 (antibody, IgG1, V domains shown)
VH: B1 VH with S21P, K30G, N31A, S32Y, T50A, T54G, R55S, S57Y, H60P, F102Y
VL: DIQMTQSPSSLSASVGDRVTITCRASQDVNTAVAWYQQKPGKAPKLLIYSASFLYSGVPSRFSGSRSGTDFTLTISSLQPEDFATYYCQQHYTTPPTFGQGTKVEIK
notes: as for B3

Bmax (MFI) (human ROR1 (hROR1)): 25400 MFI
Kd (human ROR1 (hROR1)): 1.33 nM
Kd [1]: 1.28 nM
koff [1]: 0.000474 s⁻¹
kon [1]: 370000 M⁻¹ s⁻¹
B8: SRP2193-E11 (antibody, IgG1, V domains shown)
VH: EVQLVESGGGLVQPGGSLRLSCAASGFNINDYYIHWVRQAPGKGLEWVGGIEPNSGATVFADSVKGRFTIGADTSKNTAYLQMNSLRAEDTAVYYCARSRWYRVLWSYVFHYWGQGTLVTVSS
VL: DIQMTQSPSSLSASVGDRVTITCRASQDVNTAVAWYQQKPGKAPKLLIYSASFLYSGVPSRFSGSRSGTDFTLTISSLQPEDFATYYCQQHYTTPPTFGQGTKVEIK
notes: His/FLAG-tagged IgG1, cell-free; also called Antibody 79

Bmax (MFI) (human ROR1 (hROR1)): 15400 MFI
Kd (human ROR1 (hROR1)): 3.11 nM
B9: SRP2193-D07 (antibody, IgG1, V domains shown)
VH: EVQLVESGGGLVQPGGSLRLSCAASGFNIIDYNIHWVRQAPGKGLEWVTAIGPADGSTVNADSLKGRFTISADTSKNTAYLQMNSLRAEDTAVYYCARSRWLRVLWSYVFDYWGQGTLVTVSS
VL: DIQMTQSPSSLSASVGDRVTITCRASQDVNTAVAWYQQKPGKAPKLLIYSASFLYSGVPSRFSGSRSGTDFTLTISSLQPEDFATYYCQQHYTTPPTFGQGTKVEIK
notes: as for B3

Bmax (MFI) (human ROR1 (hROR1)): 15600 MFI
Kd (human ROR1 (hROR1)): 0.4 nM
Kd [1]: 0.778 nM
koff [1]: 0.000134 s⁻¹
kon [1]: 172000 M⁻¹ s⁻¹
B10: SRP2193-B04 (antibody, IgG1, V domains shown)
VH: B1 VH with K30S, T50A, D52E, T54K, R55N, V59H, S107T
VL: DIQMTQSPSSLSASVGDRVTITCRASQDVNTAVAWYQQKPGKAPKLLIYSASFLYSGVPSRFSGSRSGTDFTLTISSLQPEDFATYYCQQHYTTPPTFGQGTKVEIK
notes: as for B3

Bmax (MFI) (human ROR1 (hROR1)): 15900 MFI
Kd (human ROR1 (hROR1)): 7.14 nM
B11: SRP2193-E10 (antibody, IgG1, V domains shown)
VH: B9 VH with I30Y, N33Y, T49G, G52D, A54V, D55N, V59N, L64V, L102Y
VL: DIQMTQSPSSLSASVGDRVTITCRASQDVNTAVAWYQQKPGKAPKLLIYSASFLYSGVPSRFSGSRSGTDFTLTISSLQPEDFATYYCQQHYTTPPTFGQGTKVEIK
notes: His/FLAG-tagged IgG1, cell-free; also called Antibody 72

Bmax (MFI) (human ROR1 (hROR1)): 15500 MFI
Kd (human ROR1 (hROR1)): 0.67 nM
Kd [1]: 2.96 nM
koff [1]: 0.000505 s⁻¹
kon [1]: 170000 M⁻¹ s⁻¹
B12: SRP2193-B03 (antibody, IgG1, V domains shown)
VH: B1 VH with K30R, N31D, S32Y, T50A, T54V, R55S, V59L, H60F, A92E
VL: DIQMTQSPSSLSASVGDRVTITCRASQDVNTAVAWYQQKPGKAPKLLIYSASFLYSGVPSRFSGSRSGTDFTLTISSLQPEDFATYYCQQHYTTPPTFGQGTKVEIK
notes: His/FLAG-tagged IgG1, cell-free; also called Antibody 82

Bmax (MFI) (human ROR1 (hROR1)): 15100 MFI
Kd (human ROR1 (hROR1)): 4.28 nM
Kd [1]: 3.96 nM
koff [1]: 0.000651 s⁻¹
kon [1]: 164000 M⁻¹ s⁻¹
B13: SRP2193-E08 (antibody, IgG1, V domains shown)
VH: B8 VH with D31E, G50A, E52D, N54H, A57S, V59N, G71S, H111D
VL: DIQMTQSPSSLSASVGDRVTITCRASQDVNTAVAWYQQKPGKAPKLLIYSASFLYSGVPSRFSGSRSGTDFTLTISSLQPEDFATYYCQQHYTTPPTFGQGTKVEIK
notes: His/FLAG-tagged IgG1, cell-free; also called Antibody 87

Bmax (MFI) (human ROR1 (hROR1)): 14800 MFI
Kd (human ROR1 (hROR1)): 0.64 nM
Kd [1]: 3.62 nM
koff [1]: 0.000379 s⁻¹
kon [1]: 105000 M⁻¹ s⁻¹
B14: SRP2193-D10 (antibody, IgG1, V domains shown)
VH: B1 VH with K30N, N31V, G49A, T54N, R55S, S57F
VL: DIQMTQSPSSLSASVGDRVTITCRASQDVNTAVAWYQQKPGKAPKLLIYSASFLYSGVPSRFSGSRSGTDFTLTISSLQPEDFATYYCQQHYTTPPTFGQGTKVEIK
notes: His/FLAG-tagged IgG1, cell-free; also called Antibody 92

Bmax (MFI) (human ROR1 (hROR1)): 14800 MFI
Kd (human ROR1 (hROR1)): 0.19 nM
Kd [1]: 1.14 nM
koff [1]: 0.000294 s⁻¹
kon [1]: 259000 M⁻¹ s⁻¹
B15: SRP2193-E03 (antibody, IgG1, V domains shown)
VH: B1 VH with K30T, N31A, T50A, T54K, R55G, V59R, H60F
VL: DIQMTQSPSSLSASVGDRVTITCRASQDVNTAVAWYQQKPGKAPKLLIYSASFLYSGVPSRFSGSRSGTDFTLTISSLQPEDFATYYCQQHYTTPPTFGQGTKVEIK
notes: His/FLAG-tagged IgG1, cell-free; also called Antibody 98
